The record followed here is patent publication US20040059519A1.

Test [1] addresses Human chorionic gonadotropin (human) (UniProt P01215). Kind of test: bead sandwich, flow cytometry; capture B2 beads, hCG 20.0 ug/mL.
Test [2] concerns the target Alpha fetoprotein (UniProt P02771). Kind of test: MAB602 capture beads, flow cytometry; AFP 0.0 ng/mL, anti-AFP probe.
Test [3] has the same target. Kind of test: MAB602 capture beads, flow cytometry; AFP 0.1 ng/mL, anti-AFP probe.
Test [4] shares this target. Kind of test: MAB602 capture beads, flow cytometry; AFP 1.0 ng/mL, anti-AFP probe.
The target of test [5] is Human chorionic gonadotropin (human) (UniProt P01215). In words: bead sandwich, flow cytometry; capture B2 beads, no hCG (background).
The target of test [6] is Alpha fetoprotein (UniProt P02771). Kind of test: MAB602 capture beads, flow cytometry; AFP 10.0 ng/mL, anti-AFP probe.
For test [7] the target is unchanged. In words: MAB602 capture beads, flow cytometry; AFP 100.0 ng/mL, anti-AFP probe.
Test [8] has the same target. In words: MAB602 capture beads, flow cytometry; AFP 1000.0 ng/mL, anti-AFP probe.
The target in test [9] is Human chorionic gonadotropin (human) (UniProt P01215). Kind of test: bead sandwich, flow cytometry; capture B1 (AB633) beads, hCG 20.0 ug/mL.
For test [10] the target is unchanged. Kind of test: bead sandwich, flow cytometry; capture B1 (AB633) beads, no hCG (background).

Chain of UniProt P01215 (P01215 25-116, chain 1 of 2, other chains not shown): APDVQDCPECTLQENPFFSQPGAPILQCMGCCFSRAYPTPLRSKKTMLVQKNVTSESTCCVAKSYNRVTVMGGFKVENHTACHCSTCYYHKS
Chain of UniProt P02771 (P02771 19-609 limits assumed): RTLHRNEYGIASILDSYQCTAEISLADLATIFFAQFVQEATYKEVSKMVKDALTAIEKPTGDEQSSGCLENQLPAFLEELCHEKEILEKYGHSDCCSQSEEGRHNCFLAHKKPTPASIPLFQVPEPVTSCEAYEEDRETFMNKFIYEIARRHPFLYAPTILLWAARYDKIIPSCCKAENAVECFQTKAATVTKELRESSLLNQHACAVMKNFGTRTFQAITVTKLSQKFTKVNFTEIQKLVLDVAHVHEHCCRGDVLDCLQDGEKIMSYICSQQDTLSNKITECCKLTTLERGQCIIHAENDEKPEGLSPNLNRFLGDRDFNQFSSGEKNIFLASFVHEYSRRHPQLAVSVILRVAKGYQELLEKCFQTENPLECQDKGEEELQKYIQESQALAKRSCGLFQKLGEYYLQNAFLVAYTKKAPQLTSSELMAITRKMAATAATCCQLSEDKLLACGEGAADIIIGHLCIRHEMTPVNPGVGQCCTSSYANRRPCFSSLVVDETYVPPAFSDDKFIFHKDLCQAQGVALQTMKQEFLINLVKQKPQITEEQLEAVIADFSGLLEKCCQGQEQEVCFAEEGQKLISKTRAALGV

Turning to MAB602 monoclonal anti-hCG antibody, the MIF of Fm in test [1] was determined as 886; with Alpha fetoprotein [2], 48; with Alpha fetoprotein [3], 48; with Alpha fetoprotein [4], 48; in [5], 56; with Alpha fetoprotein [6] it was 48. In addition, the MIF of Fm with Alpha fetoprotein [7] came to 48; with Alpha fetoprotein [8], 52; in [9], 107; in [10], 33.
